Patent KR20240052776A (dated 2024)

Assays:
Assay in all cases: flow cytometry, cell-based binding assay: yeast-displayed scFv with biotinylated MOG protein, streptavidin detection, anti-myc co-staining
[1] = molecular target: T1, biotinylated cynomolgus monkey MOG-FC protein (Q9BGS7), expressed in mammalian cells (cynomolgus monkey, UniProt Q9BGS7 30-154, limits assumed, biotinylated (site not stated))
T1 construct: also called cynomolgus MOG-Fc; 사이노몰거스 원숭이 MOG-FC; not shown: Fc part
T1 sequence (looked up): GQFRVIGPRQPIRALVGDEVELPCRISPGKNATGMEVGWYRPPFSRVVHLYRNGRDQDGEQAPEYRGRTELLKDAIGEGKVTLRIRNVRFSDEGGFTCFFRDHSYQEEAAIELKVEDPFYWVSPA

[2] = molecular target: T2, biotinylated human MOG-His (Uniprot Q16653), RND Systems (human, UniProt Q16653 30-154, biotinylated (site not stated))
T2 construct: A bought protein (RND Systems); also called 인간 MOG-His; not shown: His tag
T2 sequence (looked up): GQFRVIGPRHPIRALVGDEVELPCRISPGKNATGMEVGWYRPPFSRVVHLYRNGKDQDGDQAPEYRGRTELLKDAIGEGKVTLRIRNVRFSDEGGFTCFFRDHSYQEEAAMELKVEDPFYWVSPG

[3] = molecular target: T3, biotinylated mouse MOG-His (Uniprot Q61885), RND Systems (mouse, UniProt Q61885 29-156, limits assumed, biotinylated (site not stated))
T3 construct: A bought protein (RND Systems); also called 마우스 MOG-His; not shown: His tag
T3 sequence (looked up): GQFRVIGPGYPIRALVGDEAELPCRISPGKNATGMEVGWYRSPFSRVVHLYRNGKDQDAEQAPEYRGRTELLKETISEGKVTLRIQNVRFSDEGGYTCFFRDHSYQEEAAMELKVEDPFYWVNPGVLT

Measured: binding result

B1: anti-MOG scFv of the invention, displayed on yeast cells (MOG-CAR 발현 효모 세포) (scFv, V domains shown)
VH: QVQLVQSGAEVKKPGSSVKVSCKASGGTFSSYAFSWVRQAPGQGLEWMGRIVPVVGTPNYAQKFQGRVTITADESTSTAYMELSSLRSEDTAVYYCARERLYAGYYFDHWGQGTLVTVSS
VL: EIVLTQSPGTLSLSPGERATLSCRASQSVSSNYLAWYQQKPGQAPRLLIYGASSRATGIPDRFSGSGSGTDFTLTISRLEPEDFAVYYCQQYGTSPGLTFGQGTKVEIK
notes: also called MOG-CAR expressing yeast cells
binds: [1] | [2] | [3]
